Here are results for 45 molecules from patent USRE46585 (LABORATOIRE FRANCAIS DU FRACTIONNEMENT ET DES …, dated 2017).

Residue numbers refer to the chain shown, from its start.

B1: C7A_49 (other)
chain: CPPCPAPELLGGPSVFLFPPKPKDTLMISRTPEVTCVVVDVSHEDPEVKFNWYVDGVEVHNAKTKPREEQYNSTYRVVSVLTVLHQDWLDGKEYKCKVSNKALPVPIEKTISKAKGQPREPQVYTLPPSRDELTKNQVSLTCLVKGFYPSDIAVEWESNGQPENNYKTAPPVLDSDGSFFLYSKLTVDKSRWQQGNVFSCSVMHEALHYHYTQKSLSLSPGK
notes: EU numbering
B2: M3A_06 (other)
chain: B1 chain with F16L, V39E, D90N, V105A, A153T, A169T, V172M, Y209N
notes: EU numbering
B3: T3A_10 (other)
chain: B1 chain with N164K, A169T
notes: EU numbering
B4: M3A_26 (other)
chain: B1 chain with V39E, T82P, D90N, V105A, K115E, Q117R, A153V, A169T, Y209N
notes: EU numbering
B5: T3A_34 (other)
chain: B1 chain with V39E, D90N, V105A, P127S, A153V, A169T, Y209N
notes: EU numbering
B6: C8A_61 (other)
chain: B1 chain with P5T, V39E, D90N, V105A, A169T, P171L
notes: EU numbering
B7: T4A_41 (other)
chain: B1 chain with F16R, V39E, T82P, D90N, V105A, A153V, A169T, Y209N
notes: EU numbering
B8: M3A_12 (other)
chain: B1 chain with V105A, Q137R, A169T, N196D, Y209S
notes: EU numbering
B9: T4A_26 (other)
chain: B1 chain with V39E, T82P, D90N, V105A, A153V, E157G, Q161R, A169T, Y209N
notes: EU numbering
B10: T4A_34 (other)
chain: B1 chain with V39E, D90N, V105A, A153V, A169T, Q193K, Y209N
notes: EU numbering
B11: M3B_23 (other)
chain: B1 chain with F16L, V39E, T82P, D90N, V105A, A169T, Y209N
notes: EU numbering
B12: M3A_08 (other)
chain: B1 chain with V39E, T82P, D90N, V105A, A153T, A169T, V172M, Y209N
notes: EU numbering
B13: C8A_14 (other)
chain: B1 chain with V80A, D90N, V105A, Q161R, A169T
notes: EU numbering
B14: T3A_13 (other)
chain: B1 chain with V105A, V144A, A169T
notes: EU numbering
B15: T4A_39 (other)
chain: B1 chain with V39E, D90N, V105A, A153V, A169T, P171L, Y209N
notes: EU numbering
B16: M3A_18 (other)
chain: B1 chain with T82P, D90N, V105A, A153V, A169T, N196T, Y209N
notes: EU numbering
B17: T3A_30 (other)
chain: B1 chain with V39E, D90N, V105A, A153V, A169T, V197A, Y209N
notes: EU numbering
B18: T4A_04 (other)
chain: B1 chain with E157V, A169T
notes: EU numbering
B19: T4A_31 (other)
chain: B1 chain with P5T, F16L, V39E, T82P, D90N, V105A, A153V, A169T, Y209N
notes: EU numbering
B20: T3A_01 (other)
chain: B1 chain with V39E, T82P, D90N, V105A, A153V, A169T, N196T, Y209N
notes: EU numbering
B21: M3A_34 (other)
chain: B1 chain with S42N, T82N, D90N, V105A, K145R, A153V, A169T, Y209N
notes: EU numbering
B22: T3A_08 (other)
chain: B1 chain with V39E, D90N, V105A, A153V, A169T, F179L, Y209N
notes: EU numbering
B23: T3A_43 (other)
chain: B1 chain with V39E, D90N, V105A, E120G, A153V, A169T, Y209N
notes: EU numbering
B24: T4A_32 (other)
chain: B1 chain with V39E, D90N, V105A, A153V, A169T, H208R, Y209N
notes: EU numbering
B25: T4A_43 (other)
chain: B1 chain with D90N, V105A, I107V, K145R, A153V, A169T, Y209S
notes: EU numbering
B26: T3A_22 (other)
chain: B1 chain with F16L, V39E, D90N, V105A, A153V, A169T, Y209S
notes: EU numbering
B27: T3A_15 (other)
chain: B1 chain with V39E, D90N, V105A, A153V, F179L, Y209S
notes: EU numbering
B28: T3A_11 (other)
chain: B1 chain with P66S, A102V, A169T
notes: EU numbering
B29: T4A_44 (other)
chain: B1 chain with C1G, V39E, D90N, V105A, A153V, A169T, F179L, Y209N
notes: EU numbering
B30: T5A_05 (other)
chain: B1 chain with V39E, E44G, D90N, V105A, A153V, A169T, N196T, Y209S
notes: EU numbering
B31: M3A_35 (other)
chain: B1 chain with V39E, V105A, A169T, P171L, Y209N
notes: EU numbering
B32: T3A_16 (other)
chain: B1 chain with F16L, V39E, T82P, D90N, V105A, A153V, A169T, Y209N
notes: EU numbering
B33: T3A_41 (other)
chain: B1 chain with V39E, T82P, D90N, V105A, A153V, A169T, Y209N
notes: EU numbering
B34: C7A_68 (other)
chain: B1 chain with V39E, V105A, A153V, N165S, A169T, G195R
notes: EU numbering
B35: T4A_19 (other)
chain: B1 chain with T82P, D90N, V105A, A153V, A169T, Y209S
notes: EU numbering
B36: T4A_46 (other)
chain: B1 chain with P5T, D90N, V105A, N164K, A169T
notes: EU numbering
B37: T4A_18 (other)
chain: B1 chain with V105A, Q117R, E157V, A169T
notes: EU numbering
B38: T4A_45 (other)
chain: B1 chain with V39E, L84P, D90N, V105A, A169T, P171L, Y209S
notes: EU numbering
B39: C8A_08 (other)
chain: B1 chain with V39A, A169T
notes: EU numbering
B40: M3A_21 (other)
chain: B1 chain with F16L, V39E, T82P, D90N, V105A, A153V, A169T, N196T, Y209N
notes: EU numbering
B41: C8A_41 (other)
chain: B1 chain with V105A, E157V, A169T, H208P
notes: EU numbering
B42: T3A_47 (other)
chain: B1 chain with T82P, D90N, V105A, A153T, A169T, V172M, Y209N
notes: EU numbering
B43: M3B_04 (other)
chain: B1 chain with F16L, V39E, D90N, V105A, Q117R, A153V, A169T, Y209N
notes: EU numbering
B44: C7A_89 (other)
chain: B1 chain with T82P, D90N, A102T, V105A, N164T, A169T, N196T
notes: EU numbering
B45: T5A_03 (other)
chain: B1 chain with V39E, D90N, V105A, A169T, P171L, Y209S
notes: EU numbering

In the first test the target is T1, FcRn-p3 fusion protein (human, UniProt P55899 24-297; P61769 21-119).
T1 construct: baculovirus expressed; coated on ELISA wells; not shown: amino terminal part of bacteriophage p3 protein and CVDE protein
T1 sequence (P55899 24-297, chain 1 of 2): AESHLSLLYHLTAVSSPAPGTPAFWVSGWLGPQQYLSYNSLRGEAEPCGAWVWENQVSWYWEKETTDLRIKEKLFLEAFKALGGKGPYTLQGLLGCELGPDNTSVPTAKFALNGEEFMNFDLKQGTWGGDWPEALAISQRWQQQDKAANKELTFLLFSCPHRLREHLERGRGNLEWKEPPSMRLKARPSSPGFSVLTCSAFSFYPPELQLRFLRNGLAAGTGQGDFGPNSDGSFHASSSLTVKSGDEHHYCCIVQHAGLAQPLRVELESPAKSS
T1 sequence (P61769 21-119, chain 2 of 2): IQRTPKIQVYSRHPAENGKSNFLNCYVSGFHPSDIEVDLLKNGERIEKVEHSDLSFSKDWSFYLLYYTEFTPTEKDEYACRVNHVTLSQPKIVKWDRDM
The experiment in a line: phage ELISA pH6. (In an ELISA, binding on a coated surface is turned into a signal by an enzyme label.)
Consider B1, for which the Ratio/Fc-H was 1.7 fold.
On the same count and under the same terms, the value for B2 was 1.8 fold; that for B3 was 2.4 fold; that for B4 was 1.8 fold.
The same measure, in the same setting: to B5 belongs 1.4 fold; to B6, 1.7 fold; to B7, 2.5 fold.
As to B8, the Ratio/Fc-H came out at 1.1 fold.
In the case of B9, the Ratio/Fc-H was 3.6 fold.
For the molecule B10, the Ratio/Fc-H was determined as 1.3 fold.
Take B11: the Ratio/Fc-H stood at 1.2 fold.
Same read-out and setting: the value for B12 was 1.7 fold; that for B13 was 2.4 fold; that for B14 was 1.8 fold.
Same read-out and setting: the value for B15 was 1.4 fold; that for B16 was 1.9 fold; that for B17 was 1.1 fold.
The same measure, in the same setting: the value for B18 was 3 fold; that for B19 was 3.7 fold.
With B20, the Ratio/Fc-H was determined as 2.4 fold.
Still for that read-out and setting: the value for B21 was 1.3 fold; that for B22 was 1.1 fold.
The same measure, in the same setting: the value for B23 was 1.4 fold; that for B24 was 2.3 fold.
With B25, the Ratio/Fc-H worked out at 2 fold.
Same read-out and setting: to B26 belongs 3.8 fold.
The same measure, in the same setting: the value for B27 was 2.8 fold; that for B28 was 1.3 fold; that for B29 was 3.8 fold.
The same measure, in the same setting: to B30 belongs 2.7 fold; to B31, 1.1 fold.
In the case of B32, the Ratio/Fc-H amounted to 2.3 fold.
Take B33: the Ratio/Fc-H turned out to be 2.3 fold.
As for B34, the Ratio/Fc-H turned out to be 3.4 fold.
For the molecule B35, the Ratio/Fc-H was found to be 3.6 fold.
Same read-out and setting: the value for B36 was 3.6 fold; that for B37 was 3 fold.
Same read-out and setting: the value for B38 was 2.7 fold; that for B39 was 2 fold; that for B40 was 2.6 fold.
Still for that read-out and setting: to B41 belongs 2.7 fold; to B42, 2 fold; to B43, 1.7 fold.
With B44, the Ratio/Fc-H is 2.3 fold.
With B45, the Ratio/Fc-H was 2 fold.

For a further test, the target named is T1, FcRn-p3 fusion protein. Nature of the test: phage ELISA pH6 (est.).
For the molecule B1, the Ratio/FWT stood at 5.3 fold.
On the same count and under the same terms, to B2 belongs 5.7 fold.
Same read-out and setting: the value for B3 was 7.8 fold; that for B4 was 5.6 fold; that for B5 was 4.6 fold.
Same read-out and setting: the value for B6 was 5.5 fold.
B7: the Ratio/FWT came to 8 fold.
The same measure, in the same setting: the value for B8 was 3.4 fold; that for B9 was 11.5 fold; that for B10 was 4.3 fold.
The same measure, in the same setting: the value for B11 was 3.8 fold; that for B12 was 5.6 fold.
In the case of B13, the Ratio/FWT was found to be 7.6 fold.
On the same count and under the same terms, to B14 belongs 5.6 fold.
Turning to B15, the Ratio/FWT was 4.4 fold.
Take B16: the Ratio/FWT came to 6.2 fold.
As to B17, the Ratio/FWT is 3.4 fold.
Take B18: the Ratio/FWT was determined as 9.7 fold.
The same measure, in the same setting: the value for B19 was 11.7 fold; that for B20 was 7.8 fold; that for B21 was 4.3 fold.
On the same count and under the same terms, to B22 belongs 3.5 fold; to B23, 4.5 fold; to B24, 7.4 fold.
B25: the Ratio/FWT turned out to be 6.3 fold.
Still for that read-out and setting: to B26 belongs 12.2 fold; to B27, 8.9 fold.
Regarding B28, the Ratio/FWT turned out to be 4 fold.
Same read-out and setting: to B29 belongs 12 fold; to B30, 8.8 fold.
Still for that read-out and setting: to B31 belongs 3.7 fold; to B32, 7.4 fold; to B33, 7.2 fold.
As to B34, the Ratio/FWT turned out to be 10.9 fold.
On the same count and under the same terms, the value for B35 was 11.4 fold; that for B36 was 11.4 fold.
For B37, the Ratio/FWT came out at 9.7 fold.
As to B38, the Ratio/FWT worked out at 8.7 fold.
On the same count and under the same terms, to B39 belongs 6.4 fold; to B40, 8.4 fold; to B41, 8.8 fold.
Still for that read-out and setting: the value for B42 was 6.3 fold; that for B43 was 5.5 fold; that for B44 was 7.4 fold.
As for B45, the Ratio/FWT came out at 6.4 fold.
